Data on four molecules can be found in PMC4243950, “Characterization of the accessory protein ClpT1 from Arabidopsis thaliana: oligomerization status and interaction with Hsp100 chaperones” (BMC Plant Biology, 2014).

As a reminder, the stoichiometry N is a count of units in the complex or per binding partner. What is called Km is the concentration of substrate that gives half-maximal velocity.

In data set [1] the target is ClpD (recombinant chloroplastic Hsp100 chaperone from Arabidopsis) (Arabidopsis thaliana) (UniProt P42762).
Data set [2] concerns the target ClpT1 (recombinant mature ClpT1 from Arabidopsis thaliana, His-tag removed) (Arabidopsis thaliana) (UniProt Q93WL3). Kind of data set: SEC; the small dimer peak of the first run collected and reinjected into the column (second SEC step). In general terms: SEC sorts molecules by how far they enter the pores of the column.
Data set [3] has the same target. The data set is described as follows: cross-linking; EGS at 10, 20, 30 and 50-fold molar excess, 25 μM protein, 50 mM Hepes pH 7.5, 100 mM NaCl, 30 min at room temperature; SDS-PAGE with Coomassie staining.
Data set [4] deals with ClpC2 (recombinant chloroplastic Hsp100 chaperone from Arabidopsis) (Arabidopsis thaliana) (UniProt Q9SXJ7). The data set is described as follows: ultrafiltration (retention by a 50 kDa cut-off membrane); ClpC2 or ClpD with ClpT1 or GFP, 1.3 μM each, 50 mM Tris-HCl pH 8.0, 150 mM NaCl, 10 mM MgCl2, 5 mM ATP, 10 min at 25°C; Vivaspin 500, 30 s at 11,500 x g; permeate and retentate on SDS-PAGE, densitometry.

Data set [5] has as its target ClpD (recombinant chloroplastic Hsp100 chaperone from Arabidopsis) (Arabidopsis thaliana) (UniProt P42762). The data set is described as above.
For data set [6], the target named is ClpT1 (recombinant mature ClpT1 from Arabidopsis thaliana, His-tag removed) (Arabidopsis thaliana) (UniProt Q93WL3). The data set is described as follows: SEC; 6-fold concentrated sample and 10-fold diluted sample of ClpT1 injected; data not shown.
Data set [7] has as its target ClpD (recombinant chloroplastic Hsp100 chaperone from Arabidopsis) (Arabidopsis thaliana) (UniProt P42762). The source holds these as a separate data set.
In data set [8] the target is ClpT1 (recombinant mature ClpT1 from Arabidopsis thaliana, His-tag removed) (Arabidopsis thaliana) (UniProt Q93WL3). The data set is described as follows: SEC; purified ClpT1 on Superdex 75 10/300 GL, 0.5 mL/min, 50 mM Tris-HCl pH 8.0, 100 mM NaCl; monomer and dimer peaks integrated.
Data set [9] concerns the target glutathione S-transferase. Kind of data set: cross-linking; EGS at 10, 20, 30 and 50-fold molar excess, 25 μM protein, 50 mM Hepes pH 7.5, 100 mM NaCl, 30 min at room temperature; SDS-PAGE with Coomassie staining.
The next data set addresses T1, ClpC2 (Arabidopsis thaliana, UniProt Q9SXJ7).
T1 construct: Hsp100 chaperones can assemble into hexamers
T1 sequence (Q9SXJ7 46-952): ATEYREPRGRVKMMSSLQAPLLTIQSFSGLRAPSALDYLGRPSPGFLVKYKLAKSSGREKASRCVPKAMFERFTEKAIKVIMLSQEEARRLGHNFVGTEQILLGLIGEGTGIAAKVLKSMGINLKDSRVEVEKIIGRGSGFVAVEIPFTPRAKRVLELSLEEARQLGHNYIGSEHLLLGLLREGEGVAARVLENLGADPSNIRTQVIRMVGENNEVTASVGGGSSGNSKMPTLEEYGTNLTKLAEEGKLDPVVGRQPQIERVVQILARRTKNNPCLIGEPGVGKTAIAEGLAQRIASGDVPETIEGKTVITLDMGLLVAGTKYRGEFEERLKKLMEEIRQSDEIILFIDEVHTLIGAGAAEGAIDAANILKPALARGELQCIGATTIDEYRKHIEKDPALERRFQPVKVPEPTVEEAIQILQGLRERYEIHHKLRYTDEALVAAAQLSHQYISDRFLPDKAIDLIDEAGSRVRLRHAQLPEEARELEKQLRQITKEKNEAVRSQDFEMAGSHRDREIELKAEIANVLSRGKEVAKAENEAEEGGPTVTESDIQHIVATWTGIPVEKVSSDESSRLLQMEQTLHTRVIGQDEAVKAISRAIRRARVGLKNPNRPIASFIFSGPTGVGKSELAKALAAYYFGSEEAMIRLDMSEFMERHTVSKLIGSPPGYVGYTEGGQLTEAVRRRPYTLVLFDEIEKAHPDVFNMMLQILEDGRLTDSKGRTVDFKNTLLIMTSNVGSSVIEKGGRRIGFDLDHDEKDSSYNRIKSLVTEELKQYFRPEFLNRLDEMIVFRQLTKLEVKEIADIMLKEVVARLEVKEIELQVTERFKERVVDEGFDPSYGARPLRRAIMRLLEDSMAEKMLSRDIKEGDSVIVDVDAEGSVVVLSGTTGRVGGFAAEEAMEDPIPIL
Kind of data set: ATPase, inorganic phosphate release, Malachite green. Format: biochemical. The following applies: ClpC2 0.5 uM; basal activity without ClpT1.

Substrate in data set [10]: Nc1ncnc2c1ncn2[C@@H]1O[C@H](COP(=O)(O)OP(=O)(O)OP(=O)(O)O)[C@@H](O)[C@H]1O
The data set is described as follows: ATPase, inorganic phosphate release, Malachite green; Michaelis-Menten fit. Format: biochemical, Arabidopsis thaliana. The following applies: without ClpT1; ClpD 0.5 uM; ATP varied 0-12 mM, complete saturation not reached (extrapolated).

As to “ClpT1 (recombinant mature ClpT1 from Arabidopsis thaliana, His-tag removed) (from UniProt Q93WL3 65-238) (natural protein)”, the ATPase activity of ClpD (Malachite green), ClpT1:ClpD molar ratios from approximately 0.15:1 to 6:1; activation over the basal activity, back to the basal value at 6:1 in [1] is more than 50%. The percent of the total protein in the dimer peak after reinjection of the dimer peak in data set [2] was more than 92%. In addition, in [3], the percent of the total protein cross-linked as dimer at the highest EGS concentration stood at 60% and the stoichiometry N was found to be 2. For the same molecule, in data set [4], the percent of ClpT1 kept in the retentate is more than 75%. The percent of ClpT1 kept in the retentate in data set [5] was more than 75%. Further, the percent dimer compared to the monomer species in [6] was less than 5%. Also, the Vmax of the ClpD ATPase in the presence of ClpT1 at a 1:1 molar ratio (0.19 nmol/(min × μg protein) without ClpT1) (nmol/(min × μg protein)) in data set [7] was 0.43. In [8], the percent of the total protein in the dimer peak is less than 5% and the stoichiometry N stood at 2.

Molecule glutathione S-transferase (enzyme) came in with a stoichiometry N in [9] of 2.

In the case of `Nc1ncnc2c1ncn2[C@@H]1O[C@H](COP(=O)(O)OP(=O)(O)OP(=O)(O)O)[C@@H](O)[C@H]1O` [ATP], on ClpC2, the specific activity entry is “Both chaperones have a basal ATPase activity”.

B1: ClpD (Arabidopsis thaliana) (protein)
chain: AIIFSQKEAKSLGKDMVYTQHLLLGLIAEDRDPQGFLGSGITIDKAREAVWSIWDEANSDSKQEEASSTSYSKSTDMPFSISTKRVFEAAVEYSRTMDCQYIAPEHIAVGLFTVDDGSAGRVLKRLGANMNLLTAAALTRLKGEIAKDGREPSSSSKGSFESPPSGRIAGSGPGGKKAKNVLEQFCVDLTARASEGLIDPVIGREKEVQRVIQILCRRTKNNPILLGEAGVGKTAIAEGLAISIAEASAPGFLLTKRIMSLDIGLLMAGAKERGELEARVTALISEVKKSGKVILFIDEVHTLIGSGTVGRGNKGSGLDIANLLKPSLGRGELQCIASTTLDEFRSQFEKDKALARRFQPVLINEPSEEDAVKILLGLREKYEAHHNCKYTMEAIDAAVYLSSRYIADRFLPDKAIDLIDEAGSRARIEAFRKKKEDAICILSKPPNDYWQEIKTVQAMHEVVLSSRQKQDDGDAISDESGELVEESSLPPAAGDDEPILVGPDDIAAVASVWSGIPVQQITADERMLLMSLEDQLRGRVVGQDEAVAAISRAVKRSRVGLKDPDRPIAAMLFCGPTGVGKTELTKALAANYFGSEESMLRLDMSEYMERHTVSKLIGSPPGYVGFEEGGMLTEAIRRRPFTVVLFDEIEKAHPDIFNILLQLFEDGHLTDSQGRRVSFKNALIIMTSNVGSLAIAKGRHGSIGFILDDDEEAASYTGMKALVVEELKNYFRPELLNRIDEIVIFRQLEKAQMMEILNLMLQDLKSRLVALGVGLEVSEPVKELICKQGYDPAYGARPLRRTVTEIVEDPLSEAFLAGSFKPGDTAFVVLDDTGNPSVRTKPDSSTIRVTDKTSIA
notes: Hsp100 chaperones can assemble into hexamers
On to B1, for which, in data set [10], the Km is 19.1 mM.
